Patent US20100291097A1
One block for each binder: values may come before it.

Tests used:
[1] = biological target: Aβ1-42 peptide; assay: cell-based or functional assay
[2] = biological target: Peptide 1 of the Aβ1-42 overlapping peptide library; assay: peptide library ELISA, Ab 10 µg/ml
[3] = biological target: Peptide 10 of the Aβ1-42 overlapping peptide library; assay: peptide library ELISA, Ab 10 µg/ml
[4] = biological target: Peptide 11 of the Aβ1-42 overlapping peptide library; assay: peptide library ELISA, Ab 10 µg/ml
[5] = biological target: Peptide 12 of the Aβ1-42 overlapping peptide library; assay: peptide library ELISA, Ab 10 µg/ml
[6] = biological target: Peptide 13 of the Aβ1-42 overlapping peptide library; assay: peptide library ELISA, Ab 10 µg/ml
[7] = biological target: Peptide 14 of the Aβ1-42 overlapping peptide library; assay: peptide library ELISA, Ab 10 µg/ml
[8] = biological target: Peptide 15 of the Aβ1-42 overlapping peptide library; assay: peptide library ELISA, Ab 10 µg/ml
[9] = biological target: Peptide 16 of the Aβ1-42 overlapping peptide library; assay: peptide library ELISA, Ab 10 µg/ml
[10] = biological target: Peptide 17 of the Aβ1-42 overlapping peptide library; assay: peptide library ELISA, Ab 10 µg/ml
[11] = biological target: Peptide 18 of the Aβ1-42 overlapping peptide library; assay: peptide library ELISA, Ab 10 µg/ml
[12] = biological target: Peptide 19 of the Aβ1-42 overlapping peptide library; assay: peptide library ELISA, Ab 10 µg/ml
[13] = biological target: Peptide 2 of the Aβ1-42 overlapping peptide library; assay: peptide library ELISA, Ab 10 µg/ml
[14] = biological target: Peptide 20 of the Aβ1-42 overlapping peptide library; assay: peptide library ELISA, Ab 10 µg/ml
[15] = biological target: Peptide 21 of the Aβ1-42 overlapping peptide library; assay: peptide library ELISA, Ab 10 µg/ml
[16] = biological target: Peptide 22 of the Aβ1-42 overlapping peptide library; assay: peptide library ELISA, Ab 10 µg/ml
[17] = biological target: Peptide 23 of the Aβ1-42 overlapping peptide library; assay: peptide library ELISA, Ab 10 µg/ml
[18] = biological target: Peptide 24 of the Aβ1-42 overlapping peptide library; assay: peptide library ELISA, Ab 10 µg/ml
[19] = biological target: Peptide 25 of the Aβ1-42 overlapping peptide library; assay: peptide library ELISA, Ab 10 µg/ml
[20] = biological target: Peptide 26 of the Aβ1-42 overlapping peptide library; assay: peptide library ELISA, Ab 10 µg/ml
[21] = biological target: Peptide 27 of the Aβ1-42 overlapping peptide library; assay: peptide library ELISA, Ab 10 µg/ml
[22] = biological target: Peptide 28 of the Aβ1-42 overlapping peptide library; assay: peptide library ELISA, Ab 10 µg/ml
[23] = biological target: Peptide 29 of the Aβ1-42 overlapping peptide library; assay: peptide library ELISA, Ab 10 µg/ml
[24] = biological target: Peptide 3 of the Aβ1-42 overlapping peptide library; assay: peptide library ELISA, Ab 10 µg/ml
[25] = biological target: Peptide 30 of the Aβ1-42 overlapping peptide library; assay: peptide library ELISA, Ab 10 µg/ml
[26] = biological target: Peptide 31 of the Aβ1-42 overlapping peptide library; assay: peptide library ELISA, Ab 10 µg/ml
[27] = biological target: Peptide 32 of the Aβ1-42 overlapping peptide library; assay: peptide library ELISA, Ab 10 µg/ml
[28] = biological target: Peptide 33 of the Aβ1-42 overlapping peptide library; assay: peptide library ELISA, Ab 10 µg/ml
[29] = biological target: Peptide 4 of the Aβ1-42 overlapping peptide library; assay: peptide library ELISA, Ab 10 µg/ml
[30] = biological target: Peptide 5 of the Aβ1-42 overlapping peptide library; assay: peptide library ELISA, Ab 10 µg/ml
[31] = biological target: Peptide 6 of the Aβ1-42 overlapping peptide library; assay: peptide library ELISA, Ab 10 µg/ml
[32] = biological target: Peptide 7 of the Aβ1-42 overlapping peptide library; assay: peptide library ELISA, Ab 10 µg/ml
[33] = biological target: Peptide 8 of the Aβ1-42 overlapping peptide library; assay: peptide library ELISA, Ab 10 µg/ml
[34] = biological target: Peptide 9 of the Aβ1-42 overlapping peptide library; assay: peptide library ELISA, Ab 10 µg/ml
[35] = biological target: Aβ1-28 peptide, biotinylated (Anaspec); assay: ELISA, biotin-peptide on streptavidin, Ab 10 µg/ml; mean of 2, background subtracted; details: remark: other sources report otherwise
Aβ1-28 peptide, biotinylated (Anaspec), sequence (chain, as listed by the source): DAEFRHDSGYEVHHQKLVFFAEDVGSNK

Aβ1-42 peptide, sequence (peptide, as listed by the source): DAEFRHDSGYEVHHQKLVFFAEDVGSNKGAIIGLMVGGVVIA

disaggregation of pre-aggregated Aβ1-42, thioflavin T assay, molar ratio 1:10 [1]: 20%
disaggregation of pre-aggregated Aβ1-42, thioflavin T assay, molar ratio 1:100 [1]: 12%
inhibition of Aβ1-42 aggregation, thioflavin T assay, antibody to Aβ1-42 molar ratio 1:10 [1]: 51%
inhibition of Aβ1-42 aggregation, thioflavin T assay, antibody to Aβ1-42 molar ratio 1:100 [1]: 26%
O.D. [2]: 0.32 O.D.
O.D. [3]: 0.2 O.D.
O.D. [4]: 0.23 O.D.
O.D. [5]: 0.34 O.D.
O.D. [6]: 0.23 O.D.
O.D. [7]: 0.3 O.D.
O.D. [8]: 0.32 O.D.
O.D. [9]: 0.34 O.D.
O.D. [10]: 0.31 O.D.
O.D. [11]: 0.3 O.D.
O.D. [12]: 0.3 O.D.
O.D. [13]: 0.26 O.D.
O.D. [14]: 0.22 O.D.
O.D. [15]: 0.21 O.D.
O.D. [16]: 0.21 O.D.
O.D. [17]: 0.2 O.D.
O.D. [18]: 0.18 O.D.
O.D. [19]: 0.23 O.D.
O.D. [20]: 0.25 O.D.
O.D. [21]: 0.26 O.D.
O.D. [22]: 0.26 O.D.
O.D. [23]: 0.27 O.D.
O.D. [24]: 0.37 O.D.
O.D. [25]: 0.29 O.D.
O.D. [26]: 0.31 O.D.
O.D. [27]: 0.31 O.D.
O.D. [28]: 0.26 O.D.
O.D. [29]: 0.36 O.D.
O.D. [30]: 0.32 O.D.
O.D. [31]: 0.34 O.D.
O.D. [32]: 0.3 O.D.
O.D. [33]: 0.21 O.D.
O.D. [34]: 0.19 O.D.
B1: ACI-24-Ab-3 monoclonal antibody (antibody, IgG1, V domains shown)
VH: QVQLQQSGAELARPGASVKLSCKASGYTFTSYGIRWVKQRTGQGLEWIGEICPRSGNTYYNEKFKGKATVTADKSSSTAYMELRSLTSEDSAVYFCARSIYYGRPYYFDYWGQGTTLTVSS
VL: DIVMTQSQLFMSTSVGDRVSVTCKASQNVATNVAWYQQKPGQSPKALIYSASYRYSGVPDRFTGSGSGTDFTLTISNVQSEDLAEYFCQQYNSYPLTFGAGTKLELK

O.D. [35]: 0.53 O.D.
B2: ACI-11-Ab-9 monoclonal antibody (antibody, V domains shown)
VL: QAVVTQESALTTSPGGTVILTCRSSTGAVTTSNYANWVQEKPDHLFTGLIGGTSNRAPGVPVRFSGSLIGDKAALTITGAQTEDDAMYFCALWYSTHYVFGGGTKVTVL
VH: QVQLQQSDAELVKPGASVKISCKVSGYTFTDHTIHWMKQRPEQGLEWIGYIYPRDGSTKYNEKFKGKATLTADKSSSTAYMQLNSLTSEDSAVYFCARDYGYAFDYWGQGTTLTVSS
modifications: here or on the partner: biotinylated (position not given)
